Test [1] has as its target T1, human TL1A, soluble, CHO-expressed, residues 72-251 of SEQ ID NO:244 with N-terminal His6-tag (human, UniProt O95150 72-251).
T1 construct: also called hTL1A; hTL1A (CHO)
T1 sequence: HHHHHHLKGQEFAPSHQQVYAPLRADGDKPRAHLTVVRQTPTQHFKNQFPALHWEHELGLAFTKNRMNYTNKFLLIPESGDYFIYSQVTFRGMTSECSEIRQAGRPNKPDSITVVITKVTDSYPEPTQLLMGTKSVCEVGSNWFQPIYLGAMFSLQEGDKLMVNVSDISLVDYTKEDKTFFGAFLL
The test is described as follows: SPR 37C, mAb captured; kd set at 1e-6 1/s. As for the experimental part:
(§1) Measurements were conducted on a T100 BIACORE™ instrument. […] Kinetic association (kₐ) and dissociation (kd) rate constants were determined by fitting the data to a 1:1 binding model using BIAevaluation 4.1 curve fitting software (BIAcore Life Sciences). Molar concentrations of TL1A/Fhm used in the data fitting assumed a monomeric state for TL1A in solution. Binding dissociation equilibrium constants (KD) and dissociative half-lives (t_{1/2}) were calculated from the kinetic rate constants as: KD (M)=kd/kₐ; and t_{1/2} (min)=[In2/(60*kd)].

In test [2] the target is T2, cynomolgus monkey TL1A, soluble, CHO-expressed, residues 72-251 of SEQ ID NO:248 with N-terminal His6-tag (cynomolgus monkey (Macaca fascicularis), UniProt O95150 72-251 (human entry)).
T2 construct: also called MfTL1A; MfTL1A (CHO)
T2 chain: T1 sequence with F45L, I84V
The test is described as follows: SPR 37C, mAb captured; kd set at 1e-6 1/s. As for the experimental part:
as §1

For test [3], the target named is T3, full length human TL1A expressed on HEK293 cells (human, UniProt O95150 1-251).
T3 construct: also called HEK293/hTL1A; cell-surface hTL1A
T3 sequence: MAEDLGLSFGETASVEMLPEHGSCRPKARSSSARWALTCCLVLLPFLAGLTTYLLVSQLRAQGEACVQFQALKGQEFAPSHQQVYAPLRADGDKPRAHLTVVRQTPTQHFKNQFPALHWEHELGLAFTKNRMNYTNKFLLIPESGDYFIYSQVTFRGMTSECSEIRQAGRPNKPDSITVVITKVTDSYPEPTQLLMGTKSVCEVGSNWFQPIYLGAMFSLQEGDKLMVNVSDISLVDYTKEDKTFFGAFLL
The test is described as follows: flow, HEK293/hTL1A, mAb 1 ug/ml + 1 ug/ml soluble hTL1A. As for the experimental part: (§2) Human embryonic kidney 293 cells stably transfected to over-express cell-surface hTL1A were first stained in a flow cytometric experiment with eight anti-hTL1A antibodies at four concentrations (1, 0.1, 0.01, and 0.003 μg/ml). […] The lowest antibody concentration providing significant staining levels was then used in a competition binding experiment. A negative isotype control antibody (human IgG4) was used at 1 μg/ml to define the background signal. For the competition experiment, eight antibody samples, at the minimal concentrations identified above, were first treated with soluble hTL1A expressed from CHO cells at concentrations ranging from 0.03 μg/ml to 10 μg/ml. After pre-incubation for 30 min on ice, the antibody/hTL1A mixture was added to 293/HEK-hTL1A cells that had been isolated by centrifugation in a 96-well conical plate. After incubation for an additional 10 minutes on ice, the cells were washed. The secondary reagent, anti-h Fcγ-APC F(ab′)₂, was added to all wells at a 200-fold dilution to detect bound antibodies. Samples were incubated for 15 minutes on ice, away from light, and then washed. Cells were processed on an BD™ LSR II Flow Cytometer (BD Biosciences) to detect anti-hTL1A antibodies bound to the cell surface, and data were analyzed using FlowJo software (version 8.8.6; Tree Star Inc.). Maximum signal: Anti-hTL1A antibody binding in the absence of soluble hTL1A; Minimum signal: Signal recorded when […] of isotype control antibody was added in place of the anti-hTL1A antibody. NT: Not tested.

Test [4] deals with T3, full length human TL1A expressed on …. The test is described as follows: flow, HEK293/hTL1A, mAb 1 ug/ml + 3 ug/ml soluble hTL1A. The protocol: as §2
For test [5] the target is unchanged. In words: flow, HEK293/hTL1A, mAb 1 ug/ml + 0.03 ug/ml soluble hTL1A. As for the experimental part: as §2
In test [6] the target is T1, human TL1A, soluble, CHO-expressed, …. In words: cell-based or functional assay.

Substitutions are numbered along the chain they refer to. In names and notes the source's numbering stands. Some results are limits rather than exact numbers.

B1: H4H1742P (antibody, human IgG4 S228P, V domains shown)
VH: EVQLVESGGGLVQPGGSLRLSCAASGFTFSNYVMNWVRQAPGKGLEWVSVISGSGGSTHYADSVKGRFTISRDNSKDALYLQMNSLRAEDTAVYYCAKGPLEAYYYYNGMDVWGQGTTVTVSS
VL: DIQLTQSPSFLSASVGDRVTITCWASQAISSYLAWYQHKPGRAPKLLIYSTSTLQSGVPSRFSGSGSGTEFTLTISSLQPEDFATYYCQQLNSYPTFGQGTKLEIK
What is called Kd is the constant that tells how readily two partners part at equilibrium. For the molecule B1, the Kd in test [1] is not above 4.37 pM; in test [2], not above 4.45 pM. The t1/2 in test [1] and in test [2] was not below 192 h throughout. The MFI came to 32.7 in test [3], 19.9 in test [4] and 126 in test [5].

B2: H4H1681N (antibody, human IgG4 S228P, V domains shown)
VH: EVQLLESGGGLVQPGKSLRLSCAVSGFTFSTYGMNWVRQAPGKGLEWVSSISGTGRTTYHADSVQGRFTVSRDNSKNILYLQMNSLRADDTAVYFCTKERGDYYYGVFDYWGQGTLVTVSS
VL: DIQMTQSPSTLSASVGDRVTITCRASQTISSWLAWYQQTPEKAPKLLIYAASNLQSGVPSRFSGSGSGTEFTLTISSLQPDDFATYYCQQYHRSWTFGQGTKVEIT
For B2, the MFI in test [3] was 80.9; in test [4], 28.5; in test [5], 318.

B3: H4H1817N (antibody, human IgG4 S228P, V domains shown)
VH: QVQLQQWGAGLLKPSETLSLTCAVSGGSFSDYFWTWIRQPPGKGLEWIGEISHSGRTNYNPSLKSRVTISVDTSMSQFSLKMTSVTAADSAVYYCARDYPNWVFDYWGQGTLVTVSS
VL: EIELTQSPGTLSLSPGEGATLSCRASQSVFNSYLAWYQQKPGQAPRLLIYGASRRATGIPDRFSGSGSGTDFTLTISRLEPGDFAVYFCQQYGNSPLTFGGGTKVEIK
notes: human IgG4(S108P) form of H2M1817N
In the case of B3, in test [6], the “% Blocking IFN-g, D1, 1 ug/ml mAb” value was 100%; the “% Blocking IFN-g, D1, 3 ug/ml mAb” value came out at 100%; the “% Blocking IFN-g, D2, 1 ug/ml mAb” value was determined as 100%; the “% Blocking IFN-g, D2, 3 ug/ml mAb” value worked out at 100%. Also, in test [6], the “% Blocking IFN-g, D3, 1 ug/ml mAb” value was 90%; the “% Blocking IFN-g, D3, 3 ug/ml mAb” value was found to be 100%; the “% Blocking IFN-g, D4, 1 ug/ml mAb” value turned out to be 90%; the “% Blocking IFN-g, D4, 3 ug/ml mAb” value is 100%. Further, in test [6], the “% Blocking IFN-g, D5, 1 ug/ml mAb” value came out at 100%; the “% Blocking IFN-g, D5, 3 ug/ml mAb” value was determined as 100%; the “% Blocking IFN-g, D6, 1 ug/ml mAb” value amounted to 45%; the “% Blocking IFN-g, D6, 3 ug/ml mAb” value turned out to be 100%. Moreover, in test [6], the “% Blocking IFN-g, D7, 1 ug/ml mAb” value was found to be 55%; the “% Blocking IFN-g, D7, 3 ug/ml mAb” value came out at 100%; the “% Blocking IFN-g, D8, 1 ug/ml mAb” value stood at 100%; the “% Blocking IFN-g, D8, 3 ug/ml mAb” value was 100%. In test [6], the “% Blocking IFN-g, D9, 1 ug/ml mAb” value was 55%; the “% Blocking IFN-g, D9, 3 ug/ml mAb” value turned out to be 95%; the “% Blocking IFN-g, D10, 1 ug/ml mAb” value worked out at 80%; the “% Blocking IFN-g, D10, 3 ug/ml mAb” value turned out to be 85%. In addition, in test [3], the MFI stood at 29.1. In addition, the MFI in test [4] was 25.2. The MFI in test [5] was 85.3.

B4: H4H1745P (antibody, human IgG4 S228P, V domains shown)
VH: EVQLVESGGGLVQPGGSLRLSCAASGFTFSSYAMTWVRQAPGKGLEWVSGVSGRGGSTYYADSVKGRFTISRDNSKNTLYLQMNSLRAEDTAVYYCAYWDISSFDYWGQGTLVTVSS
VL: DIQLTQSPSFLSASVGDRVTITCWASQGISTYLAWYQQKPGKTPKLLIYAASTLQSGVPSRFSGSGSGTDFTLTISSLQPEDFATYYCQQFNSYPLTFGGGTKVEIK
For B4, the MFI was determined as 26.9 in test [3], 19.5 in test [4] and 80 in test [5].

Values taken from US20140120109A1 (Regeneron, published 2014).
